Measured values published in US20240262879.

B1: rhMMP1 (protein)
chain: FVLTEGNPRWEQTHLTYRIENYTPDLPRADVDHAIEKAFQLWSNVTPLTFTKVSEGQADIMISFVRGDHRDNSPFDGPGGNLAHAFQPGPGIGGDAHFDEDERWTNNFREYNLHRVAAHELGHSLGLSHSTDIGALMYPSYTFSGDVQLAQDDIDGIQAIYGRSQNPVQPIGPQTPKACDSKLTFDAITTIRGEVMFFKDRFYMRTNPFYPEVELNFISVFWPQLPNGLEAAYEFADRDEVRFFKGNKYWAVQGQNVLHGYPKDIYSSFGFPRTVKHIDAALSEENTGKTYFFVANKYWRYDEYKRSMDPGYPKMIAHDFPGIGHKVDAVFMKDGFFYFFHGTRQYKFDPKTKRILTLQKANSWFNCRKN
B2: rhMMP2 (protein)
chain: YNFFPRKPKWDKNQITYRIIGYTPDLDPETVDDAFARAFQVWSDVTPLRFSRIHDGEADIMINFGRWEHGDGYPFDGKDGLLAHAFAPGTGVGGDSHFDDDELWTLGEGQVVRVKYGNADGEYCKFPFLFNGKEYNSCTDTGRSDGFLWCSTTYNFEKDGKYGFCPHEALFTMGGNAEGQPCKFPFRFQGTSYDSCTTEGRTDGYRWCGTTEDYDRDKKYGFCPETAMSTVGGNSEGAPCVFPFTFLGNKYESCTSAGRSDGKMWCATTANYDDDRKWGFCPDQGYSLFLVAAHEFGHAMGLEHSQDPGALMAPIYTYTKNFRLSQDDIKGIQELYGASPDIDLGTGPTPTLGPVTPEICKQDIVFDGIAQIRGEIFFFKDRFIWRTVTPRDKPMGPLLVATFWPELPEKIDAVYEAPQEEKAVFFAGNEYWIYSASTLERGYPKPLTSLGLPPDVQRVDAAFNWSKNKKTYIFAGDKFWRYNEVKKKMDPGFPKLIADAWNAIPDNLDAVVDLQGGGHSYFFKGAYYLKLENQSLKSVKFGSIKSDWLGC
B3: rhMMP7 (protein)
chain: YSLFPNSPKWTSKVVTYRIVSYTRDLPHITVDRLVSKALNMWGKEIPLHFRKVVWGTADIMIGFARGAHGDSYPFDGPGNTLAHAFAPGTGLGGDAHFDEDERWTDGSSLGINFLYAATHELGHSLGMGHSSDPNAVMYPTYGNGDPQNFKLSQDDIKGIQKLYGKRSNSRKK
B4: rmMMP9 (protein)
chain: FQTFKGLKWDHHNITYWIQNYSEDLPRDMIDDAFARAFAVWGEVAPLTFTRVYGPEADIVIQFGVAEHGDGYPFDGKDGLLAHAFPPGAGVQGDAHFDDDELWSLGKGVVIPTYYGNSNGAPCHFPFTFEGRSYSACTTDGRNDGTPWCSTTADYDKDGKFGFCPSERLYTEHGNGEGKPCVFPFIFEGRSYSACTTKGRSDGYRWCATTANYDQDKLYGFCPTRVDATVVGGNSAGELCVFPFVFLGKQYSSCTSDGRRDGRLWCATTSNFDTDKKWGFCPDQGYSLFLVAAHEFGHALGLDHSSVPEALMYPLYSYLEGFPLNKDDIDGIQYLYGRGSKPDPRPPATTTTEPQPTAPPTMCPTIPPTAYPTVGPTVGPTGAPSPGPTSSPSPGPTGAPSPGPTAPPTAGSSEASTESLSPADNPCNVDVFDAIAEIQGALHFFKDGWYWKFLNHRGSPLQGPFLTARTWPALPATLDSAFEDPQTKRVFFFSGRQMWVYTGKTVLGPRSLDKLGLGPEVTHVSGLLPRRLGKALLFSKGRVWRFDLKSQKVDPQSVIRVDKEFSGVPWNSHDIFQYQDKAYFCHGKFFWRVSFQNEVNKVDHEVNQVDDVGYVTYDLLQCP

molecular target: Peptide 10

Protein | Specific Activity [pmol/min/µg]
B1 | 10
B2 | 163
B3 | 98.4
B4 | 111

molecular target: Peptide 8

Protein | Specific Activity [pmol/min/µg]
B1 | 10.8
B2 | 260
B3 | 70.9
B4 | 158

Molecular target: T1, Peptide 5 (GPLGVRG)
T1 chain: GPLGVRG

Protein | Specific Activity [pmol/min/µg]
B1 | 10
B2 | 260
B3 | 10
B4 | 292

molecular target: Control (peptide of Table 12)

Protein | Specific Activity [pmol/min/µg]
B1 | 10
B2 | 10
B3 | 10
B4 | 10
